Measurements reported in the supplement of paper PMC9876800.

System: peptide library, one residue held at a place counted from the S/T acceptor
Experiment: relative phosphorylation of the sub-library (ratio to the mean residue at this position); higher = residue favoured
Conditions: human
Procedure, shortened: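 In 384-well plates, purified recombinant kinases (human or orthologue constructs) were incubated for 90 min under kinase-specific conditions with 50 μM biotinylated degenerate peptide sub-libraries and 50 μM ATP spiked with γ-32P-ATP. Each sub-library fixed a single residue at one position around a central Ser/Thr. Relative sub-library phosphorylation, measured by phosphorimaging and densitometry of streptavidin membrane spots, is given as a ratio to the mean residue at that position.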

Sequence of AKT2, construct: Full length (P31751 whole entry, looked up): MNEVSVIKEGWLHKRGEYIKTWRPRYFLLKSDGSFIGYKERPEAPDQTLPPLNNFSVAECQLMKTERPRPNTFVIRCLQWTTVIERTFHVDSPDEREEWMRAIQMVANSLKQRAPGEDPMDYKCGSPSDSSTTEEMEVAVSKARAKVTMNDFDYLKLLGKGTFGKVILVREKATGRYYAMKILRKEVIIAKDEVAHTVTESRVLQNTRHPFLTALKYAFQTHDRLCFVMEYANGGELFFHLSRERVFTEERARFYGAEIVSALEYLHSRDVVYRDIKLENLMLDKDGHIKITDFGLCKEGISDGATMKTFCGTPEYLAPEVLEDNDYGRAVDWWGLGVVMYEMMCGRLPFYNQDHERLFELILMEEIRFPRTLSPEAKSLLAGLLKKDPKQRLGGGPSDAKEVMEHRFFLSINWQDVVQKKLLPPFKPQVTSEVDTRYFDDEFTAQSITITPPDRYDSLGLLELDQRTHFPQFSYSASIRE
Sequence of PRKACG, construct: Full length (P22612 whole entry, looked up): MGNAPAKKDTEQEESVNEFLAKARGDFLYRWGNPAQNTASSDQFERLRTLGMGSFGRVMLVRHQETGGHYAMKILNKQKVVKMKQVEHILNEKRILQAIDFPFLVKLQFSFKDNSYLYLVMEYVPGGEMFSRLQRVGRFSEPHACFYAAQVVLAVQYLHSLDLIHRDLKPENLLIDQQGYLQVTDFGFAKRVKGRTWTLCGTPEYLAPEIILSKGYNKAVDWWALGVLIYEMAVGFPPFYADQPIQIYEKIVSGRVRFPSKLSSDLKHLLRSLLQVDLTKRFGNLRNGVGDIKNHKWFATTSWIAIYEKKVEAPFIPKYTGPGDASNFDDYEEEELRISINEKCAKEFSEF
Sequence of MAP3K8, construct: aa30-397 (P41279 30-397, looked up): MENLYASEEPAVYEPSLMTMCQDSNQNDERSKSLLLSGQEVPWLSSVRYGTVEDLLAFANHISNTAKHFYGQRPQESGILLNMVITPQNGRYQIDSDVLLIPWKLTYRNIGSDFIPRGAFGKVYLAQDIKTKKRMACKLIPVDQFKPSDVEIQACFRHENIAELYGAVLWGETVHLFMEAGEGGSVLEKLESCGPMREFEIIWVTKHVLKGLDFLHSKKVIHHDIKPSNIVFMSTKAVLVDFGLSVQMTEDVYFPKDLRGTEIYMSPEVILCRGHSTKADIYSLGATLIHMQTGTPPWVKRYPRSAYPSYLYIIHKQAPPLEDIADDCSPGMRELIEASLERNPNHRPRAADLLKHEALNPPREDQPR

MAP3K8, construct: aa30-397 (from UniProt P41279)
relative phosphorylation
Conditions | at +1 | at +2 | at +3 | at +4 | at -1 | at -2 | at -3 | at -4 | at -5
A fixed | 0.997 | 0.962 | 0.971 | 1.12 | 0.924 | 0.801 | 0.815 | 1.17 | 1.27
D fixed | 0.537 | 0.83 | 0.819 | 1.27 | 1.65 | 2 | 1.57 | 1.62 | 1.47
E fixed | 0.66 | 1.12 | 0.961 | 1.44 | 1.2 | 1.5 | 1.62 | 1.51 | 1.27
F fixed | 1.1 | 0.338 | 0.599 | 0.523 | 0.449 | 0.976 | 0.535 | 0.489 | 0.575
G fixed | 1.23 | 0.736 | 1.2 | 1.09 | 1.31 | 1.23 | 1.36 | 1.51 | 1.41
H fixed | 0.869 | 1.17 | 0.465 | 0.83 | 1.16 | 1.18 | 1.16 | 1.16 | 1.33
I fixed | 0.847 | 0.952 | 0.832 | 0.655 | 0.336 | 0.554 | 0.382 | 0.479 | 0.435
K fixed | 1.31 | 1.61 | 1.57 | 1.4 | 1.37 | 0.653 | 1.08 | 1.11 | 1.47
L fixed | 0.9 | 0.938 | 1.22 | 0.771 | 0.746 | 0.816 | 0.59 | 0.55 | 0.576
M fixed | 1.29 | 0.697 | 1.09 | 0.877 | 0.572 | 0.789 | 0.595 | 0.676 | 0.499
N fixed | 0.996 | 1.67 | 1.03 | 0.997 | 1.5 | 1.35 | 1.32 | 1.35 | 1.25
P fixed | 0.299 | 0.499 | 0.522 | 1.72 | 1.11 | 0.927 | 1.52 | 1.32 | 1.31
Q fixed | 1.36 | 1.9 | 1.21 | 1.09 | 1.28 | 0.913 | 1.16 | 1.01 | 0.943
R fixed | 1.31 | 1.5 | 1.73 | 1.02 | 1.41 | 0.717 | 1.15 | 1.05 | 1.08
V fixed | 1.07 | 1.25 | 0.992 | 0.809 | 0.601 | 0.519 | 0.446 | 0.536 | 0.694
W fixed | 0.806 | 0.382 | 0.78 | 0.689 | 0.591 | 0.805 | 0.835 | 0.707 | 0.834
Y fixed | 1.41 | 0.438 | 1.01 | 0.688 | 0.782 | 1.28 | 0.856 | 0.761 | 0.575
pThr fixed | 1.64 | 1.48 | 0.934 | 1.43 | 1.44 | 1.43 | 1.5 | 1.4 | 1.1
pTyr fixed | 0.716 | 1.83 | 1.08 | 1.17 | 1.51 | 0.871 | 1.49 | 0.882 | 1.1

PRKACG, construct: Full length (from UniProt P22612)
relative phosphorylation
Conditions | at +1 | at +2 | at +3 | at +4 | at -1 | at -2 | at -3 | at -4 | at -5
A fixed | 0.696 | 1.22 | 0.896 | 0.974 | 0.795 | 0.472 | 0.682 | 0.944 | 1.09
D fixed | 0.44 | 0.969 | 0.917 | 0.885 | 0.473 | 0.197 | 0.322 | 0.595 | 0.569
E fixed | 0.469 | 0.676 | 0.951 | 0.985 | 0.452 | 0.215 | 0.344 | 0.665 | 0.577
F fixed | 1.58 | 1.13 | 1.06 | 0.761 | 0.709 | 0.578 | 0.441 | 0.653 | 0.754
G fixed | 0.804 | 1.08 | 1.26 | 1.17 | 1.21 | 0.565 | 0.846 | 1.09 | 1.09
H fixed | 1.05 | 1.45 | 1.39 | 1.14 | 1.11 | 1.08 | 1.35 | 1.3 | 1.42
I fixed | 1.57 | 0.902 | 0.819 | 1.16 | 0.343 | 0.227 | 0.289 | 0.564 | 0.63
K fixed | 1.08 | 0.812 | 1.08 | 0.978 | 2.41 | 4.09 | 2.19 | 1.85 | 1.97
L fixed | 1.32 | 0.961 | 0.87 | 0.866 | 0.746 | 0.324 | 0.297 | 0.582 | 0.627
M fixed | 1.51 | 0.926 | 0.805 | 0.879 | 0.959 | 0.414 | 0.49 | 0.873 | 0.713
N fixed | 0.851 | 0.942 | 0.921 | 1.04 | 1.15 | 0.689 | 0.776 | 1.01 | 0.965
P fixed | 0.295 | 0.941 | 1.05 | 1.28 | 1.16 | 0.445 | 1.03 | 1.06 | 0.86
Q fixed | 1.05 | 0.975 | 0.913 | 0.937 | 1.1 | 0.532 | 0.789 | 1.04 | 0.91
R fixed | 1.18 | 0.87 | 1.11 | 0.886 | 1.97 | 6.02 | 5.51 | 2.44 | 2.36
V fixed | 1.18 | 1.02 | 0.871 | 0.991 | 0.563 | 0.217 | 0.315 | 0.678 | 0.777
W fixed | 0.963 | 0.99 | 1.04 | 1.1 | 0.768 | 0.462 | 0.615 | 0.821 | 0.856
Y fixed | 0.969 | 1.14 | 1.05 | 0.979 | 1.09 | 0.478 | 0.716 | 0.847 | 0.824
pThr fixed | 0.817 | 0.71 | 0.919 | 1.52 | 0.455 | 0.542 | 0.792 | 0.954 | 0.769
pTyr fixed | 0.939 | 1.03 | 1.26 | 1.29 | 0.59 | 0.455 | 0.614 | 0.655 | 0.751

AKT2, construct: Full length (from UniProt P31751)
relative phosphorylation
Conditions | at +1 | at +2 | at +3 | at +4 | at -1 | at -2 | at -3 | at -4 | at -5
A fixed | 0.789 | 1.29 | 1.06 | 0.923 | 0.951 | 0.988 | 0.523 | 1.15 | 1.09
D fixed | 0.487 | 0.644 | 0.589 | 0.615 | 0.663 | 0.303 | 0.213 | 0.571 | 0.519
E fixed | 0.448 | 0.575 | 0.584 | 0.595 | 0.457 | 0.304 | 0.231 | 0.647 | 0.536
F fixed | 1.78 | 0.673 | 0.86 | 0.681 | 0.795 | 0.446 | 0.288 | 0.7 | 0.931
G fixed | 0.854 | 1.36 | 1.27 | 1.23 | 1.16 | 0.615 | 0.351 | 1.19 | 1.05
H fixed | 0.947 | 1.76 | 1.39 | 1.15 | 1.28 | 0.822 | 0.546 | 1.03 | 1.04
I fixed | 1.14 | 0.734 | 0.617 | 0.687 | 0.43 | 0.438 | 0.274 | 0.661 | 0.711
K fixed | 1.02 | 1.33 | 1.79 | 1.96 | 1.36 | 2.83 | 1.91 | 1.98 | 1.67
L fixed | 1.11 | 0.872 | 0.859 | 0.736 | 0.772 | 0.784 | 0.29 | 0.797 | 0.838
M fixed | 1.35 | 0.8 | 0.735 | 0.814 | 0.984 | 0.488 | 0.291 | 0.888 | 0.872
N fixed | 1.1 | 1.23 | 0.919 | 1.06 | 1.67 | 0.547 | 0.304 | 0.914 | 0.807
P fixed | 0.722 | 0.925 | 1.02 | 1.64 | 1.12 | 0.385 | 0.34 | 0.972 | 1.02
Q fixed | 1.19 | 0.881 | 0.964 | 1.11 | 1.12 | 0.657 | 0.48 | 0.986 | 0.841
R fixed | 1.12 | 1.41 | 1.82 | 1.68 | 1.61 | 6.03 | 10.1 | 2.35 | 2.51
V fixed | 1.01 | 0.92 | 0.743 | 0.64 | 0.523 | 0.486 | 0.275 | 0.701 | 0.736
W fixed | 0.972 | 0.723 | 0.888 | 0.705 | 0.737 | 0.437 | 0.294 | 0.674 | 0.907
Y fixed | 0.971 | 0.878 | 0.887 | 0.765 | 1.38 | 0.441 | 0.311 | 0.803 | 0.927
pThr fixed | 0.772 | 1.1 | 0.808 | 0.932 | 0.441 | 0.482 | 0.346 | 0.752 | 0.776
pTyr fixed | 0.884 | 1.13 | 1.01 | 0.71 | 0.83 | 0.425 | 0.32 | 0.641 | 0.809
